Residue numbers refer to the chain shown, from its start.
B1: anti-PAR-2 antibody 1A1 (antibody, V domains shown)
VH: EVQLVQSGAEVKKPGESLKISCKGSGYNFISHWIGWVRQMPGKGLEWMGMIYPGDSDTRYSPSFQGQVTISADKSINTAYLQWRSLKASDTAMYFCARHGGITGTTFYYDFGMDVWGQGTTVTVSS
VL: SYELTQPPSVSVSPGQTARITCSGDALPKQYASWYQQKPGQAPLLVIYRDSERPSGLPERFSGSSSGTTVTLTISGVQAEDEADYYCQSADSGGSYVFGTGTKVTVL
notes: Human antibody from a XenoMouse hybridoma; also called monoclonal antibody 1A1
B2: anti-PAR-2 antibody 1B5 (antibody, V domains shown)
VH: EVQLVQSGAEVKKSGESLKISCKGSGYSFSNYWIGWVRQMPGKGLEWMGIIYPGDSDTRYSPSFQGQVTISADKSIRTAYLQWSSLKASDTAMYYCARHKGITGTTFYYDYGMDVWGQGTTVTVSS
VL: B1 VL with D25E, L44V, S51T, L57I, G93N, S95A, K103R
notes: Human antibody from a XenoMouse hybridoma
B3: anti-PAR-2 antibody 1C7 (antibody, V domains shown)
VH: B2 VH with S14P, S30T, N31S
VL: B1 VL with D25E, L44V, R49K, L57I, G93N, S95A
notes: as for B2
B4: anti-PAR-2 antibody 9B12 (antibody, V domains shown)
VH: QVQLVESGGGVVQPGRSLRLSCAASGFTFSSYGMHWVRQAPGKGLEWVAVIWYDGSNKYYADSVKGRFTISRDNSKNTLYLQMNSLRAEDTAVYYCARDLGAAAGTGFDYWGQGTLVTVSS
VL: QSVLTQPPSVSAAPGQKVTISCSGSSSNIGNNYVSWYQQLPGTAPKLLIYDNNKRPSGIPDRFSGSKSGTSATLGITGLQTGDEADYYCGTWDSSLSAGVVFGGGTKLTVL
B5: anti-PAR-2 antibody 12D5 (antibody, V domains shown)
VH: QVQLQQSGPGLVKPSQTLSLTCAISGDSVSSNRAAWNWIRQSPSRGLEWLGRTYYRSKWYNDFAVSVRSRITITPDTSKNQFSLQLNSVTPEDTAVYYCARDRNSGYYYYGLDVWGQGTTVTVSS
VL: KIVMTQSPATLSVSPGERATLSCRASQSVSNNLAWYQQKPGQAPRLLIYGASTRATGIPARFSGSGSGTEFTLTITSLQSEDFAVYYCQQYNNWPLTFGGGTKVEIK
B6: anti-PAR-2 antibody 13F2 (antibody, V domains shown)
VH: B5 VH with F63H, R68K, T94K
VL: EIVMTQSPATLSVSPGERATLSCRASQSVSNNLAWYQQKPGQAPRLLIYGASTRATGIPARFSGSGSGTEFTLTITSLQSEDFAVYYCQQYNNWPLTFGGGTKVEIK
B7: anti-PAR-2 antibody 2C6 (antibody, V domains shown)
VH: QVQLVQSGAEVKKPGASVKVSCKASGYTFTGYFFHWVRQAPGQGLEWVGWINPNSGATHFAQKFQGRVTMTRDTSISTAYMELSRLRSDDTAVYYCARDGSNWNRDYGMDVWGQGTTVTVSS
VL: QSVLTQPPSASGTPGQRVTISCSGSSSNIGINHVYWYQQLPGTAPKIFIYRNNQRPSGVPDRFSGSKSGTSASLAISGLRSEDEADYYCAVWDDSLSGVVFGGGTKLTVLG

These binders were tested against T1, clipped N-terminal PAR-2/Fc polypeptide (human) (assay: Western blot; by the footnote, an upstream binder binds only the full-length PAR-2/Fc).
T1 construct: also called truncated amino-terminal PAR-2-Fc; cleaved PAR-2/Fc
Description: To analyze binding to uncleaved versus cleaved PAR-2, various amounts of purified uncleaved and clipped N-terminal PAR2-Fc are subjected to SDS-PAGE using 8-16% polyacrylamide gradient gels (Novex gels, Invitrogen Life Technologies) in a Tris-Glycine buffer system. Gel lanes containing See Blue standards (Novex, Invitrogen Life Technologies) for molecular weight identification are also included. Following electrophoresis, proteins are transferred from gels onto nitrocellulose membranes using a Novex XCell II Blot Module (Invitrogen Life Technologies). Membranes are blocked with 1:1, Odyssey blocking buffer, OBB, (LI-COR Biosciences):TBS (Tris Buffer Saline) overnight at 4 C with shaking. Antibodies to be analyzed are diluted in 1:1 OBB:TBS at a desired final concentration for 1 hr at room temperature. Membranes are washed extensively with 0.1% Tween 20 in TBS (3-4 changes of 100 ml over ˜1 hr). Membranes are then exposed to the appropriate secondary antibody-Alexa680 (Molecular Probes, Invitrogen Life Technologies) conjugate (goat anti-rabbit IgG, or goat anti-mouse IgG) diluted 1:5000 in 1:1 (OBB:TBS) for 1 hr at room temperature. Membranes are washed as described above, and if desired, analyzed using a LI-COR Odyssey Infrared Imaging System (LI-COR Biosciences).
Several PAR-2 antibodies were tested in different assay formats; Table 2 summarizes the results. IC₅₀ values were determined in a FLIPR assay for Ca2+ mobilization described previously; binding to the upstream region of the cleavage site versus the downstream region of the cleavage site was determined using the Western blot assay described previously.
B1: no binding.
B2: no binding.
B3: no binding.

The binders below were run against PAR-2 (on the cells of the FLIPR Ca2+ mobilization assay) (assay: cell-based or functional assay).
PAR-2 (on the cells of the FLIPR Ca2+ mobilization assay), sequence (P55085 whole entry): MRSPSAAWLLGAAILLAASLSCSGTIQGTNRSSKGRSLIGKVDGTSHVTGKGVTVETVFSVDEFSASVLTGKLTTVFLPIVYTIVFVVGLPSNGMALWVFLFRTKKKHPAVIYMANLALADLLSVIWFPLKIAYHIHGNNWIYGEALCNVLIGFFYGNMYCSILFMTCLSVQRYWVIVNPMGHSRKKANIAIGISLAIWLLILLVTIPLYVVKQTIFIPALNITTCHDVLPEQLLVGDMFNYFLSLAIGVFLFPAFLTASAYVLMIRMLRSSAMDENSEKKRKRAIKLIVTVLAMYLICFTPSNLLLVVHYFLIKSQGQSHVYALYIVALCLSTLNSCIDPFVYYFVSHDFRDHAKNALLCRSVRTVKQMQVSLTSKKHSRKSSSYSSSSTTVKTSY
B4 was tested, and the “IC50, FLIPR assay for Ca2+ mobilization” value was over 1000 nM.
With B5 the “IC50, FLIPR assay for Ca2+ mobilization” value was over 1000 nM.
With B6 the “IC50, FLIPR assay for Ca2+ mobilization” value was over 1000 nM.
For B7, the “IC50, FLIPR assay for Ca2+ mobilization” value was over 1000 nM.
B1 was tested, and the “IC50, FLIPR assay for Ca2+ mobilization” value was 2 nM.
In the case of B2, the “IC50, FLIPR assay for Ca2+ mobilization” value is reported as 3 nM.
For B3, the “IC50, FLIPR assay for Ca2+ mobilization” value was 3 nM.

Each binder was assayed against T2, cell surface expressed human PAR-2 (human, UniProt P55085 25-397) (assay: KinExA, cells expressing human PAR-2, averaged for N=5 experiments; antibody 1A1; N=5 experiments).
T2 sequence: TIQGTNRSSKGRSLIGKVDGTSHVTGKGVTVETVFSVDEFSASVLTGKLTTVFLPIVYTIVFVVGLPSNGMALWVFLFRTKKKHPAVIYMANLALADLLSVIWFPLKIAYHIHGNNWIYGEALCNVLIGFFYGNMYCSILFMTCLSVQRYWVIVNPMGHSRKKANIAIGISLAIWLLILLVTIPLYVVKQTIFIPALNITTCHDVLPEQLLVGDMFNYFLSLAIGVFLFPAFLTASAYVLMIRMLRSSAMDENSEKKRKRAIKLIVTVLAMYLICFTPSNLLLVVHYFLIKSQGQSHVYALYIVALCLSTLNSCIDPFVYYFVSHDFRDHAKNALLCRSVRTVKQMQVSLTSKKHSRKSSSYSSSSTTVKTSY
Description: This example describes the analysis of the binding properties of PAR-2 antigen-binding proteins to cell surface expressed PAR-2 utilizing a Kinetic Exclusion Assay which measures binding events in solution phase and can be used to calculate KD, Kₒₙ and Koff (KinExA®; Sapidyne Instruments, Boise, Id.), substantially as described previously by Xie et. al. J. Imm, Methods 304:1 (2005) and Rathanaswami et. al. Anal. Biochem. 373:52 (2008). Briefly, serial dilutions of cells expressing human PAR-2 (for example, CHO transfectants expressing human PAR-2 at the cell surface, obtainable by transfecting CHO cells with human full length PAR-2 cDNA encoding a polypeptide of SEQ ID NO:2) and control cells (i.e., non-transfected CHO cells) in a modified DMEM medium (phenol red free containing 10% heat inactivated FBS, 0.1 mM MEM non-essential amino acids, 1 mM sodium pyruvate, penicillin-streptomycin-glutamine, and 0.025% (w/w) sodium azide) are incubated with set amounts of antibody for 24 to 36 hours at 4 C with rotation. […] The free mAb is measured by KinExA® using the appropriate capture beads and Cy5-conjugated anti-human secondary antibodies, as described by Rathanaswami et al. Biochem Biophys Research Commun:1004 (2005). […]
The KD of certain PAR-2 antibodies was determined in this manner.
In the case of B1, the Kd is reported as 0.0628 nM.

— patent US20110059063A1 (Amgen, published 2011)
